Test results as given in the RNAGym collection of RNA variant scans (doi:10.1073/pnas.2313332121).

B1: TPR t1 (parent)
chain: GACCAAUCUGCCCUCAGAGCUCGAGAACAUCUUCGGAUGCAGAGGAGGCAGGCUUCGGUGGCGCGAUAGCGCCAACGUCCUCAACCUCCAAUGCAUCCCACCACAUGAUGAUGCCUGAAGAGCCUUGGUUUUUUG

Variants of: B1
Assay: polymerase ribozyme fitness, log enrichment relative to wild type (log ratio); higher = more active; in vitro selection for triplet polymerase activity
In short: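 The heterodimeric triplet polymerase ribozyme's subunits were each mutagenized into PCR-built libraries and transcribed. Every library was selected once, in triplicate, by annealing with a biotinylated primer, the partner subunit and triplets, incubating frozen at −7 °C, gel-excising extended constructs, capturing on streptavidin beads and running RT-PCR. Input and output libraries were Illumina-sequenced, with genotypes kept only at ≥10 input reads and ≥1 read per output. Fitness, from inverse-variance-weighted replicate averages, is the base-2 logarithm of genotype enrichment over wild-type enrichment.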
In the case of GACCAAUCUGCCCUCAGAGCUCGAGAACAUCUUCGGAUGCAGAGGAUGCAGGCUUCGGUGGCGCGAUAGCGCCAACGUCCUCAACCUCCAAUGCAUCUCACCACAUGAUGAAGCCUGAAGAGCCUUGGUUUUUUG [G47U C98U U112A], the “polymerase ribozyme fitness (log ratio)” value is reported as -3.7.
For GACCAAUCUGCCCUCAGAGCUCGAGAACAUCUUCGGAUGCAGAGGAUGCAGGCUUCGGUGGCGCGAUAGCGCCAACGUCCUCAACCUCCAAUGCAUCCCACCACAUGAUGAUGCCUGAAGAGCAUUGGUGUUUUG [G47U C124A U130G], the “polymerase ribozyme fitness (log ratio)” value was -0.902.
With GACCAAUCUGCCCUCAGAGCUCGAGAACAUCUUCGGAUGCAGAGGAUUCAGGCUUCGGUGGCGCGAUAGCGCCAACGUUCUCAACCUCCAAUGCAUCCCACCACAUGAUGAUGCCUGAAGAGCCUUGGUUUUUUG [G47U G48U C79U] the “polymerase ribozyme fitness (log ratio)” value was -2.83.
In the case of GACCAAUCUGCCCUCAGAGCUCGAGAACAUCUUCGGAUGCAGAGGAUGCAGGCUUCAGUGGCGCGAUAGCGCCAACGUCCUCAACCUCCAAUGCAUCCCACCACAUGAUGAUGCCUGAAGAGCCUUGGUUUUUUG [G47U G57A], the “polymerase ribozyme fitness (log ratio)” value is reported as -1.73.
For GACCAAUCUGCCCUCAGAGCUCGAGAACAUCUUCGGAUGCAGAGGAUGCAGGCUUCGGUGGCGCGAUAGCGCCAAAGUAGUCAACCUCCAAUGGAUCCCCCCACAUGAUGAUGCCGGAAGAGCUUUGGAUUUUUG [G47U C76A C79A C80G C94G A100C U116G C124U U129A], the “polymerase ribozyme fitness (log ratio)” value was -5.73.
In the case of GACCAAUCUGCCCUCAGAGCUCGAGAACAUCUUCGGAUGCAGAGGAUGCAGGCUUCGGUGGCGCGAUAUCGCCAACGUCCUCAACCUCCAAUGCAUCCCACCACAUGAUGAUGCCUGAAGAGCCUUGGUUUUUUG [G47U G69U], the “polymerase ribozyme fitness (log ratio)” value is reported as -0.915.
For GACCAAUCUGCCCUCAGAGCUCGAGAACAUCUUCGGAUGCAGAGGAUGCAGGCUUCGGUGGCGCGAUAGUGCCAACGUCCUGAACCUCCAAUGCAUCCCACCACAUGAUGAUGCCUGAAUAGCGUUAGUUUUUUG [G47U C70U C82G G120U C124G G127A], the “polymerase ribozyme fitness (log ratio)” value was -0.105.
With GACCAAUCUGCCCUCAGAGCUCGAGAACAUCUUCGGAUGCAGAGGAUGCAGGCUUCGGUGUCGCGAUAGCGCCAACGUCCUCAACCUCCAAUGCAUCCCACCACAUGAUAAUGCCUGAAGAGCCUUGGUUUUUUG [G47U G61U G110A] the “polymerase ribozyme fitness (log ratio)” value was -3.87.
In the case of GACCAAUCUGCCCUCAGAGCUCGAGAACAUCUUCGGAUGCAGAGGAUGCAUGCUUCGGUGGCGCGAUAGCGCUAACGUCCUCAACCUCCAAUGCAUCCCACCACAUGAUGAUGCCUGAAGAGCCUUGGUUUUUUG [G47U G51U C73U], the “polymerase ribozyme fitness (log ratio)” value is reported as -6.37.
In the case of GACCAAUCUGCCCUCAGAGCUCGAGAACAUCUUCGGAUGCAGAGGAUGCAGGAUUCGGUGGCGCGAUAGCGCCAACGUCCUCAACCUCCAAUGCAUCCCACCACAUGAUGAUGACUGAAGAGCCUUGGUUUUUUG [G47U C53A C114A], the “polymerase ribozyme fitness (log ratio)” value is reported as -2.64.
For GACCAAUCUGCCCUCAGAGCUCGAGAACAUCUUCGGAUGCAGAGGAUGCAGGCUUCGGUGGCGCGAUAGCGCCAACGUCCUCAACCUCCAAUGCAUCUCACCACAUGAUGAUGCCUGAAGAGCCUUGGUUUUUUG [G47U C98U], the “polymerase ribozyme fitness (log ratio)” value was -4.36.
In the case of GACCAAUCUGCCCUCAGAGCUCGAGAACAUCUUCGGAUGCAGAGGAUGCAGGCUUCGGUGGCGCGAUAGCGCCAACGUCAUCAACCUCCAAUGCAUCCCACCACAUGAUGAUACCUGAAGAGCCUUGGUUUUUUG [G47U C80A G113A], the “polymerase ribozyme fitness (log ratio)” value is reported as -6.73.
For GACCAAUCUGCCCUCAGAGCUCGAGAACAUCUUCGGAUGCAGAGGAUGCAGGUUUCGGUGGCGCGAUAGCGCCAACGUCCUCAACCUCCAAUGCAUCCCACCACAUGAUGAUGCCUGAAUAGCCUUGGUUUUUUG [G47U C53U G120U], the “polymerase ribozyme fitness (log ratio)” value was -1.25.
For GACCAAUCUGCCCUCAGAGCUCGAGAACAUCUUCGGAUGCAGAGGAUGCAGGCUUCGGUGGCGCGAUAGCGUCAACGUCCUCAACCUCCAAUGAAUCCCACCACAUGAUGAUGCCUGAAGAGCCUUGGUUUUUUG [G47U C72U C94A], the “polymerase ribozyme fitness (log ratio)” value was -2.85.
In the case of GACCAAUCUGCCCUCAGAGCUCGAGAACAUCUUCGGAUGCAGAGGAUGCAGGCUUCGGUGGCGCGAUAGCGCCAACGUCCUCAACCUCCAAUGCAUCCCACCACAUGAUGAUGACUGAAGAGCCUUGGUUUUUUG [G47U C114A], the “polymerase ribozyme fitness (log ratio)” value is reported as -2.77.
With GACCAAUCUGCCCUCAGAGCUCGAGAACAUCUUCGGAUGCAGAGGAUGCAGGCUUCGGUGGCGCGAUAGCGCCAACGUCCUCAACCUCCAAUGCAUCCCACCACAUGAUGAUGUCUGAAGAGCCUUGGUUUUUUG [G47U C114U] the “polymerase ribozyme fitness (log ratio)” value was -3.33.
In the case of GACCAAUCUGCCCUCAGAGCUCGAGAACAUCUUCGGAUGCAGAGGAUGCAGGCUUCGGUGGCUCGAUAGCGCCAACGUCCUCAAACUCCAAUGCAUCCCACCACAUGAUGAUGCCUGAAGAGCCUUGGUUUUUUG [G47U G63U C85A], the “polymerase ribozyme fitness (log ratio)” value is reported as -3.29.
In the case of GACCAAUCUGCCCUCAGAGCUCGAGAACAUCUUCGGAUGCAGAGGAUGCAGGCUUCGGUGGCGCGAUAGCGCCAACGUCCUCAACCUCCAAUUCAUCCCACCACAUGAUGAUGCCUGAAGAGCCUUGGUUUUUUG [G47U G93U], the “polymerase ribozyme fitness (log ratio)” value is reported as -2.97.
For GACCAAUCUGCCCUCAGAGCUCGAGAACAUCUUCGGAUGCAGAGGAUGCAGGUUUCGGUGGCGCGAUAGCGCCAACGUACUCAACCUCCAAUGCAUCCCACCACAUGAUGAUGCCUGAAGAGCCUUGGUUUUUUG [G47U C53U C79A], the “polymerase ribozyme fitness (log ratio)” value was -4.4.
With GACCAAUCUGCCCUCAGAGCUCGAGAACAUCUUCGGAUGCAGAGGAUGCAGGCUUCGGUGGCGCGAUAGCGCCAACGUCCUCAACCUGCAAUGCAACCCACCACAUGAUGAAGCCUGAAGAGCCUUGGUUUUUUG [G47U C88G U96A U112A] the “polymerase ribozyme fitness (log ratio)” value was -6.98.
In the case of GACCAAUCUGCCCUCAGAGCUCGAGAACAUCUUCGGAUGCAGAGGAUGCAGGCUUCGGUGGCGCGAUAGCGGCAACGUCCACAACCUCCAAUGCAUCCCACCACAUGAUGAUGCCUGAAGAGCCUUGGUUUUUUG [G47U C72G U81A], the “polymerase ribozyme fitness (log ratio)” value is reported as -3.46.
